This note sets out measurements from the supplement of paper PMC7877785.

A short description of the series: self-splicing fitness, log relative to wild type (ln ratio); higher = more splicing; Tetrahymena group I intron in knt gene, E. coli kanamycin selection, DiMSum; sequences stand for … in CUCUCU…GGAGGGAAAAGUUAUCAGGCAUGCACCUGGUAGCUAGUCUUUAAACCAAUAGAUUGCAUCGGUUUAAAAGGCAAGACCGUCAAAUUGCGGGAAAGGGGUCAACAGCCGUUCAGUACCAAGUCUCAGGGGAAACUUUGAGAUGGCCUUGCAAAGGGUAUGGUAAUAAGCUGACGGACAUGGUCCUAACCACGCAGCCAAGUCCUAAGUCAACAGAUCUUCUGUUGAUAUGGAUGCAGUUCACAGACUAAAUGUCGGUCGGGGAAGAUGUAUUCUUCUCAUAAGAUAUAGUCGGACCUCUCCUUAAUGGGAGCUAGCGGAUGAAGUGAUGCAACACUGGAGCCGCUGGGAACUAAUUUGUAUGCGAAAGUAUAUUGAUUAGUUUUGGAGUACUCGUGGUCG
The method in brief:
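Colonies from six replicate transformations of E. coli BL21(DE3) were pooled and amplicon-sequenced on an Illumina HiSeq 2500. The library placed an intron with all eight P1ex-region nucleotides randomised inside the knt kanamycin-resistance gene on pET-22b(+), and cells grew overnight at 37°C or 30°C on LB agar with or without 25 μg/mL kanamycin (plus 100 μg/mL carbenicillin, 50 μM IPTG, 0.2% rhamnose). Fitness is the DiMSum error-weighted combination of wild-type-normalised replicate fold changes, kanamycin versus none.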

± gives the uncertainty stated by the source.

Take GUUAAGCAAUAUUACGGCUC: the “self-splicing fitness (ln)” value by setting is: (30 °C) 0.46 ± 0.2; (37 °C) -0.6 ± 0.21.
For CCGUAGCAAUAUUACGAUGG, the “self-splicing fitness (ln)” value (30 °C) was -3.58 ± 0.2 and the “self-splicing fitness (ln)” value (37 °C) was -3.38 ± 0.26.
Taken in the same sequence, the figures for GCGGAGCAAUAUUACGACUU were -0.726 ± 0.15 and -1.48 ± 0.29.
In the same order, the values of UUCUAGCAAUAUUACGGUGC are -2.46 ± 0.4 and -2.96 ± 0.38.
In the same order, the values of AACGAGCAAUAUUACGCGAU are -3.04 ± 0.26 and -1.99 ± 0.3.
In the case of GUUUAGCAAUAUUACGGUGG, under “37 °C”, the “self-splicing fitness (ln)” value was -2.33 ± 0.31.
In the case of CGCAAGCAAUAUUACGUGGU, the “self-splicing fitness (ln)” value is -3.75 ± 0.17 (30 °C) and -3.22 ± 0.19 (37 °C).
With AAUCAGCAAUAUUACGGGCU, the “self-splicing fitness (ln)” value is -2.04 ± 0.081 (30 °C) and -1.22 ± 0.094 (37 °C).
In the same order, the values of UAAAAGCAAUAUUACGCUCU are -1.02 ± 0.12 and -0.11 ± 0.14.
On to GAGUAGCAAUAUUACGAAUA, for which the “self-splicing fitness (ln)” value (30 °C) was -2 ± 0.14 and the “self-splicing fitness (ln)” value (37 °C) is -1.76 ± 0.14.
Taken in the same sequence, the figures for CUGCAGCAAUAUUACGCUAC were -4.2 ± 0.36 and -2.17 ± 0.16.
In the same order, the values of UUAAAGCAAUAUUACGAUAU are -1.05 ± 0.11 and -0.358 ± 0.13.
In the same order, the values of AGCCAGCAAUAUUACGUCUA are -3 ± 0.21 and -2.05 ± 0.19.
On to UGAUAGCAAUAUUACGAACA, for which the “self-splicing fitness (ln)” value is -0.502 ± 0.18 (30 °C) and 0.324 ± 0.26 (37 °C).
For GCCUAGCAAUAUUACGCAUU, the “self-splicing fitness (ln)” value is -0.686 ± 0.051 (30 °C) and -0.35 ± 0.062 (37 °C).
For UCUCAGCAAUAUUACGACAC, the “self-splicing fitness (ln)” value by setting is: (30 °C) -4.22 ± 0.26; (37 °C) -3.33 ± 0.33.
Regarding GUAUAGCAAUAUUACGAAUC, the “self-splicing fitness (ln)” value runs as follows: (30 °C) -2.37 ± 0.22; (37 °C) -0.29 ± 0.17.
For CCUAAGCAAUAUUACGGACA, the “self-splicing fitness (ln)” value was -1.7 ± 0.31 (30 °C) and -2.24 ± 0.31 (37 °C).
For UUUCAGCAAUAUUACGCUAA, the “self-splicing fitness (ln)” value reads like this: (30 °C) -1.25 ± 0.18; (37 °C) -0.815 ± 0.17.
CACGAGCAAUAUUACGAUCU: the “self-splicing fitness (ln)” value (37 °C) is -1.99 ± 0.27.
For the sequence AGACAGCAAUAUUACGGCAU, the “self-splicing fitness (ln)” value was -0.544 ± 0.052 (30 °C) and -0.211 ± 0.066 (37 °C).
Taken in the same sequence, the figures for GACUAGCAAUAUUACGGCAU were -0.26 ± 0.059 and 0.291 ± 0.081.
In the case of ACCAAGCAAUAUUACGUUUU, the “self-splicing fitness (ln)” value (30 °C) was -3.36 ± 0.1 and the “self-splicing fitness (ln)” value (37 °C) is -2.29 ± 0.096.
Taken in the same sequence, the figures for UUUUAGCAAUAUUACGAAAU were -2.34 ± 0.34 and -1.72 ± 0.27.
Regarding GCCGAGCAAUAUUACGGGCU, the “self-splicing fitness (ln)” value was -3.27 ± 0.23 (30 °C) and -2.43 ± 0.27 (37 °C).
In the same order, the values of UAUUAGCAAUAUUACGGAGU are -3.84 ± 0.43 and -2.01 ± 0.29.
In the same order, the values of ACUCAGCAAUAUUACGAGAA are -1.51 ± 0.21 and -0.586 ± 0.2.
In the case of CGUCAGCAAUAUUACGCUCC, the “self-splicing fitness (ln)” value (30 °C) is -1.3 ± 0.15 and the “self-splicing fitness (ln)” value (37 °C) is -0.786 ± 0.22.
Taken in the same sequence, the figures for AUGGAGCAAUAUUACGACAG were -2.74 ± 0.28 and -0.415 ± 0.28.
Taken in the same sequence, the figures for CUACAGCAAUAUUACGAGUG were -0.714 ± 0.047 and -0.418 ± 0.068.
In the same order, the values of ACAAAGCAAUAUUACGAUCU are -0.717 ± 0.067 and -0.0747 ± 0.083.
For UGCCAGCAAUAUUACGGACG, the “self-splicing fitness (ln)” value (30 °C) is -0.337 ± 0.06 and the “self-splicing fitness (ln)” value (37 °C) is -0.0244 ± 0.076.
In the case of AGCGAGCAAUAUUACGAGGC, for the setting “30 °C”, the “self-splicing fitness (ln)” value is -3.16 ± 0.44.
Take AUCUAGCAAUAUUACGACAA: the “self-splicing fitness (ln)” value was -1.76 ± 0.23 (30 °C) and 0.296 ± 0.19 (37 °C).
Taken in the same sequence, the figures for GUUAAGCAAUAUUACGAGUG were -2.69 ± 0.14 and -1.84 ± 0.16.
In the same order, the values of AAAAAGCAAUAUUACGAGUU are -1.33 ± 0.065 and -0.488 ± 0.07.
As for GAACAGCAAUAUUACGGGUC, the “self-splicing fitness (ln)” value by setting is: (30 °C) -2.3 ± 0.19; (37 °C) -3 ± 0.27.
Taken in the same sequence, the figures for ACGAAGCAAUAUUACGCAUA were -1.44 ± 0.08 and -0.782 ± 0.072.
